Consider one molecule from PMC8899823 (Science translational medicine, 2022).

For assay [1], the target named is bat RsSHC014 spike protein (Bat SARS-like coronavirus RsSHC014, UniProt U5WLK5). The assay is described as follows: ELISA. (In general: An ELISA detects its analyte on a solid surface through an enzyme-linked reagent.)
Another assay deals with SARS-CoV-2 RBD (SARS-CoV-2, UniProt P0DTC2). The assay is described as follows: ELISA.

B1: DH1047 IgG (antibody, V domains shown)
VH: QVQLVQSGAEVKKPGASVQVSCQASANTFTNHYIHWVRQAPGQGLEWMGIIYPTGGNTIYAQGFQGRVTMTRDTSLNTIYLELSSLRSEDTAVYYCARDVRVDDSWSGYDLLSGGTYFDYWGQGTLVTVSS
VL: not shown
On to B1, for which the binding result (in assay [1]; with SARS-CoV-2 RBD) was “binds” in each case.
